# Measurements published in patent US20160046713A1 (INNATE PHARMA, published 2016).
# T1: KIR3DL2 domain 1 construct (V5-tagged, CD24-GPI anchored) on HEK-293T/17 cells (human, UniProt P43630 139-238)
# T1 construct: also called pcDNA3.1/KIR3DL2 domain 1; KIR3DL2 extracellular domain 1
# T1 sequence: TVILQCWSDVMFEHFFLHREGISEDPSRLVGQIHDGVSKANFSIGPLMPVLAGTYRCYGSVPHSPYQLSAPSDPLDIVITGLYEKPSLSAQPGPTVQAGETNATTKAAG
# Key:
# [1] = target: T2, human KIR3DL1 (CD158e1) on cells (human, UniProt P43629 22-444); experiment: two colour immunofluorescence on polyclonal NK cell populations and clones
# T2 construct: Present on donor NK and T cells
# T2 sequence (P43629 22-444 limits assumed): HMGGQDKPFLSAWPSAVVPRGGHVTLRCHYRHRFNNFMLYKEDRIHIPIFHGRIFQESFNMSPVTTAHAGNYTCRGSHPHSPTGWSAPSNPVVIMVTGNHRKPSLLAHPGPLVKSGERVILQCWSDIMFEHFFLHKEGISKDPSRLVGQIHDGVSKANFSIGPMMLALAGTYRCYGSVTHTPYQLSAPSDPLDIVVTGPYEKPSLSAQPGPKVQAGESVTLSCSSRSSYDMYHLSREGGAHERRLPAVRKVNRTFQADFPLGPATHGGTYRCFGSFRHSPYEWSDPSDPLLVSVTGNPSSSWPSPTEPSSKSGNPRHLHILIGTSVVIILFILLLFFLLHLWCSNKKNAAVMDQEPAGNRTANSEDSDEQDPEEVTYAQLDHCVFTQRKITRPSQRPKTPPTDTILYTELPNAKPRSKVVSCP
# Source text: mAbs were generated by immunizing 5 week old Balb C mice with polyclonal IL-2 activated NK population. […] The reactivity of AZ158 was further analyzed on NK cell populations and clones in combination with additional antibodies, including EB6 ([…], CD158a), GL183 (anti-p58.2/50.2, CD158b), PAX180 (anti-p50.3) and FES172 (anti-p50.3), as well as Z27 and Q66, and it was observed that AZ158 reacted with the same cell subset stained by the anti-KIR3DL1 and anti-KIR3DL2 mAbs. Similar results were also observed using a panel of NK cell clones expressing different HLA class I specific NK receptors.
# [2] = target: T3, human KIR3DS1 (CD158e2) on cells (human, UniProt P43629 22-381); experiment: flow cytometry with AZ158-PE on healthy donor PBMC gated on CD3+ T lymphocytes
# T3 construct: Present on donor NK and T cells
# T3 sequence (P43629 other isoform, or with tags, fused parts or gaps limits assumed): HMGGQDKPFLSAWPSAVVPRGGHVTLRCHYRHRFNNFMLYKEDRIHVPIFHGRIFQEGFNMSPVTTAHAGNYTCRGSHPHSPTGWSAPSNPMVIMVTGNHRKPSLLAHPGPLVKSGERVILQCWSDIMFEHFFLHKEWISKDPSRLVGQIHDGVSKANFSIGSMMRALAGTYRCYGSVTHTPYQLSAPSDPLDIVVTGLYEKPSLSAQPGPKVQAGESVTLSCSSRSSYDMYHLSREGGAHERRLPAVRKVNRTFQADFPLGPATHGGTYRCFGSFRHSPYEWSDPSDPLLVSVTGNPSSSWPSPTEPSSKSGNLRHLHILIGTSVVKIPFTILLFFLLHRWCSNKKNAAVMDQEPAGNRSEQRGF
# [3] = target: T4, KIR3DL1 recombinant protein (R&D systems) (Homo sapiens (Human), UniProt P43629 22-340); experiment: SPR (Biacore T100), receptor immobilized on chip, antibody injected at 12 µg/ml
# T4 construct: Bought protein; also called KIR3DL1 chip; immobilized KIR3DL1
# T4 sequence (P43629 22-340 limits assumed): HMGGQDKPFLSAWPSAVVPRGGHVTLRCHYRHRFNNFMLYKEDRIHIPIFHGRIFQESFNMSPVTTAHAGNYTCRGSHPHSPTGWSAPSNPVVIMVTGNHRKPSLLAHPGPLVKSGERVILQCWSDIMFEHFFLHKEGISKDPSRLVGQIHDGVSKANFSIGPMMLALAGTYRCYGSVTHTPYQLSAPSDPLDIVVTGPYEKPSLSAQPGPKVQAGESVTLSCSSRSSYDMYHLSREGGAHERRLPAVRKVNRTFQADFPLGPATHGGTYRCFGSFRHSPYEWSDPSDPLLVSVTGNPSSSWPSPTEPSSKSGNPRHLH
# Method: The binding of chimeric AZ158 (“chAZ158”, see Example 3) to KIR3DL2 and KIR3DL1 recombinant proteins (R&D systems) was analyzed by Surface Plasmon Resonance (SPR) using a Biacore T100 apparatus. […] Antibody was injected at a constant concentration of 12 μg/ml over the KIR3DL2 and KIR3DL1 flow-cells. Background signals were subtracted online by co-injecting onto the reference flow cell (dextran alone). Sensorgrams are representative of three independent experiments.
# [4] = target: T5, KIR3DL2 domain 2 construct (V5-tagged, CD24-GPI anchored) on HEK-293T/17 cells (human, UniProt P43630 239-340); experiment: flow cytometry on transfected HEK-293T/17 cells, goat anti-human-PE detection
# T5 construct: also called pcDNA3.1/KIR3DL2 domain 2; KIR3DL2 extracellular domain 2
# T5 sequence (P43630 other isoform, or with tags, fused parts or gaps limits assumed): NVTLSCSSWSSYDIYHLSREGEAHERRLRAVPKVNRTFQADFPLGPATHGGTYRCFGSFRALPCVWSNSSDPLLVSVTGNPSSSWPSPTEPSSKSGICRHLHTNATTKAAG
# Method: (§1) Transfections were performed using 5 μg of the different pcDNA3.1/KIR3DL2 domain 0, pcDNA3.1/KIR3DL2 domain 1 or pcDNA3.1/KIR3DL2 domain 2 constructs using Lipofectamine 2000 according to manufacturer instructions. To ensure DNA purity for transfection, Maxi-prep endotoxin free kit from Qiagen was used. The Lipofectamine/DNA ratio used was fixed at 2/1. Cells were harvested 48 hours after transfection for flow cytometry experiments.
# (§2) Cells were harvested and stained in PBS 1×/BSA 0.2%/EDTA 2 mM buffer during 1H at 4° C. using 5 μg/ml of chiAZ158 antibody. After two washes in staining buffer, cells were stained for 30 min at 4° C. with anti-V5 antibody FITC (0.1 μl per well) and goat anti-human (H+L)-PE antibodies (1/200). After two washes, stainings were acquired on a BD FACS Canto II and analyzed using the FlowJo software.
# (§3) Results are shown in FIGS. 7-10, with V5-FITC indicated on the y-axis and chAZ158-GAH-PE on the x-axis. […] No binding of the chiAZ158 antibody could be detected on KIR3DL2 domain 1 (FIG. 9) or domain 2 (FIG. 10). Therefore, it can be concluded from this flow cytometry experiment that the chAZ158 antibody binds to the KIR3DL2 extracellular domain 0 but not to domains 1 and 2.
# [5] = target: T1, KIR3DL2 domain 1 construct (V5-tagged, …); experiment: as above
# Method: as §1, §2, §3
binding result [1],binding result [2],binding result [3],binding result [4],binding result [5],Binder
binds,binds,–,–,–,"AZ158 (murine monoclonal antibody) (antibody, mouse IgG2b, V domains shown, also called mAb AZ158; AZ158-PE) VH: QVQLKESGPGLVAPSQSLSITCTVSGFSLTSFGVHWVRQPPGKGLEWLGVIWAGGSTNYNSALMSRLSISKDNSKSQVFLKMNSLQNDDTAMYYCARGNSNHYVSSFYYFDYWGQGTTLTVSS VL: DIQMTQSPSSLSASLGGKVTITCKASQDINKYIAWYQHKPGKGPRLLIHYTSTLQPGIPSRFSGSGSGRDYSFSISNLEPEDITTYYCLQYDNLWTFGGGTKLEIK"
–,–,binds,no binding (tested: 5 µg/ml),no binding (tested: 5 µg/ml),"chAZ158 (chimeric AZ158, human IgG1-kappa, with the MKV6-derived kappa chain) (antibody, V domains shown, also called chiAZ158; AZ158 chimeric antibody) VH: QVQLKESGPGLVAPSQSLSITCTVSGFSLTSFGVHWVRQPPGKGLEWLGVIWAGGSTNYNSALMSRLSISKDNSKSQVFLKMNSLQNDDTAMYYCARGNSNHYVSSFYYFDYWGQGTTLTVSS VL: DIQMTQSPSSLSASLGGKVTITCKASQDINKYIAWYQHKPGKGPRLLIHYTSTLQPGIPSRFSGSGSGRDYSFSISNLEPEDITTYYCLQYDNLWTFGGGTKLEIKR"
